Assay results: PMC9817130, “Structural insights into broadly neutralizing antibodies elicited by hybrid immunity against SARS-CoV-2” (Emerging Microbes & Infections, 2023)

Molecular target: T1, SARS-CoV-2 WT RBD protein (Sino Biological) (SARS-CoV-2 WT, UniProt P0DTC2)
T1 construct: also called viral RBD; immobilized RBD
Experiment: SPR
Settings: both partners purified

B1: LY-CoV1404 (Bebtelovimab) (antibody, V domains shown)
VH: QITLKESGPTLVKPTQTLTLTCTFSGFSLSISGVGVGWLRQPPGKALEWLALIYWDDDKRYSPSLKSRLTISKDTSKNQVVLKMTNIDPVDTATYYCAHHSISTIFDHWGQGTLVTVSS
VL: QSALTQPASVSGSPGQSITISCTATSSDVGDYNYVSWYQQHPGKAPKLMIFEVSDRPSGISNRFSGSKSGNTASLTISGLQAEDEADYYCSSYTTSSAVFGGGTKLTVL
notes: also called class III LY-CoV1404
B1: binds.
